According to patent US10370436B2, “Anti-pseudomonas Psl binding molecules and uses thereof” (priority 2011, dated 2019):

Tests used:
[1] = tested on: P. aeruginosa strain 9882-80 (O11); test: OPK assay, strain 9882-80.lux; format: cell-based, Pseudomonas aeruginosa; details: strain 9882-80.lux (O11); FIG. 2B
Experimental: This example describes the evaluation of prioritized human IgG1 antibodies to promote OPK of P. aeruginosa. […] OPK assays were performed as described in (DiGiandomenico, A., et al., Infect Immun 72, 7012-7021 (2004)), with modifications. Briefly, assays were performed in 96-well plates using 0.025 ml of each OPK component; P. aeruginosa strains; diluted baby rabbit serum; differentiated HL-60 cells; and monoclonal antibody. In some OPK assays, luminescent P. aeruginosa strains, which were constructed as described (Choi, K. H., et al., Nat Methods 2, 443-448 (2005)), were used. Luminescent OPK assays were performed as described above but with determination of relative luciferase units (RLUs) using a Perkin Elmer ENVISION Multilabel plate reader (Perkin Elmer).
The ability of the WapR-004 and Cam-003 antibodies to mediate OPK activity against another clinically relevant O-antigen serotype strain, 9882-80.lux, was evaluated.

[2] = tested on: P. aeruginosa PAO1.lux association with A549 cells; test: Cell attachment assay, PAO1.lux to A549 cells; format: cell-based, Pseudomonas aeruginosa; details: MOI of 10, FIG. 4, FIG. 9B
Experimental: Anti-Psl antibodies were added to a confluent monolayer of A549 cells (an adenocarcinoma human alveolar basal epithelial cell line) grown in opaque 96-well plates (Nunc Nunclon Delta). Log-phase luminescent P. aeruginosa PAO1 strain (PAO1.lux) was added at an MOI of 10. After incubation of PAO1.lux with A549 cells at 37° C. for 1 hour, the A549 cells were washed, followed by addition of LB+0.5% glucose. Bacteria were quantified following a brief incubation at 37° C. as performed in the OPK assay described in Example 2. Measurements from wells without A549 cells were used to correct for non-specific binding.

[3] = tested on: P. aeruginosa strains PAO1, 33356, 6294, 6077; test: P. aeruginosa acute pneumonia model, survival; format: in vivo, BALB/c mice; details: strain 6077 (O11) 8×10^5 or 6×10^5 CFU; 5 and 1 mg/kg; FIGS. 6E, 6F
Experimental: FIG. 6 (A-G): Survival rates for animals treated with anti-Psl monoclonal antibodies Cam-003 or WapR-004 in a P. aeruginosa acute pneumonia model. (A-D) Animals were treated with Cam-003 at 45, 15, and 5 mg/kg and R347 at 45 mg/kg or PBS 24 hours prior to intranasal infection with (A) PAO1 (1.6×10^7 CFU), (B) 33356 (3×10^7 CFU), (C) 6294 (7×10^6 CFU), (D) 6077 (1×10^6 CFU). (E-F) Animals were treated with WapR-004 at 5 and 1 mg/kg as indicated followed by infection with 6077 at (E) (8×10^5 CFU), or (F) (6×10^5 CFU). Animals were carefully monitored for survival up to 72 hours (A-D) or for 120 hours (E-F). (G) Animals were treated with Cam-003 at 15 mg/kg or 5 mg/kg, or R347 at 15 mg/kg 24 hours prior to intranasal infection with PAO1 (4.4×10^7 CFU), and Cam-003 at 15 mg/kg 24 hours prior to intranasal infection with PAO1ΔpslA (3×10^7 CFU). In all experiments, PBS and R347 served as negative controls. Results are represented as Kaplan-Meier survival curves; differences in survival were calculated by the Log-rank test for Cam-003 vs. R347. (A) Cam-003 (45 mg/kg—P<0.0001; 15 mg/kg—P=0.0003; 5 mg/kg—P=0.0033). (B) Cam-003 (45 mg/kg—P=0.0012; 15 mg/kg—P=0.0012; 5 mg/kg—P=0.0373). (C) Cam-003 (45 mg/kg—P=0.0007; 15 mg/kg—P=0.0019; 5 mg/kg—P=0.0212). (D) Cam-003 (45 mg/kg—P<0.0001; 15 mg/kg—P<0.0001; 5 mg/kg—P=0.0001). Results are representative of at least two independent experiments. […]

B1: WapR-004: anti-Psl antibody, VH SEQ ID NO: 11 and VL SEQ ID NO: 12 (antibody, V domains shown)
VH: EVQLLESGPGLVKPSETLSLTCNVAGGSISPYYWTWIRQPPGKGLELIGYIHSSGYTDYNPSLKSRVTISGDTSKKQFSLHVSSVTAADTAVYFCARGDWDLLHALDIWGQGTLVTVSS
VL: EIVLTQSPSSLSTSVGDRVTITCRASQSIRSHLNWYQQKPGKAPKLLIYGASNLQSGVPSRFSGSGSGTDFTLTISSLQPEDFATYYCQQSYSFPLTFGGGTKLEIK
modifications: WapR-004 VH; WapR-004 & WarR-004RAD VL
[1]
  OPK activity: OPK activity extends to strain 9882-80
[2]
  inhibition of association of PAO1.lux to A549 cells: most active at inhibiting P. aeruginosa cell attachment to A549 lung epithelial cells
[3]
  survival: significant concentration-dependent survival
